According to US20210238253A1 (GUANGDONG ZHAOTAI INVIVO BIOMEDICINE, published 2021):

T1: hCD19-his (human CD19 recombinant protein, Pro20-Lys291, His tag at C-terminus) (human, UniProt P15391 20-291)
T1 construct: range 20-291; also called human CD19-His
T1 sequence (looked up): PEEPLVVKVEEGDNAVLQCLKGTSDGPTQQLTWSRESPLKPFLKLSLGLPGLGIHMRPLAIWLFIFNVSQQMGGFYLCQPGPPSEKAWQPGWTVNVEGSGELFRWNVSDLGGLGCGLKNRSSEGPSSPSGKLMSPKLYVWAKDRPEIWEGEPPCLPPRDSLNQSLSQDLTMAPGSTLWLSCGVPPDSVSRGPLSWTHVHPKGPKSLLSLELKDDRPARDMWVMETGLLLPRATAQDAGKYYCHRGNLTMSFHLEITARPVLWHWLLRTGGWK

T2: CD19 expressed by Nalm6 cells (UniProt P15391 20-556)
T2 chain: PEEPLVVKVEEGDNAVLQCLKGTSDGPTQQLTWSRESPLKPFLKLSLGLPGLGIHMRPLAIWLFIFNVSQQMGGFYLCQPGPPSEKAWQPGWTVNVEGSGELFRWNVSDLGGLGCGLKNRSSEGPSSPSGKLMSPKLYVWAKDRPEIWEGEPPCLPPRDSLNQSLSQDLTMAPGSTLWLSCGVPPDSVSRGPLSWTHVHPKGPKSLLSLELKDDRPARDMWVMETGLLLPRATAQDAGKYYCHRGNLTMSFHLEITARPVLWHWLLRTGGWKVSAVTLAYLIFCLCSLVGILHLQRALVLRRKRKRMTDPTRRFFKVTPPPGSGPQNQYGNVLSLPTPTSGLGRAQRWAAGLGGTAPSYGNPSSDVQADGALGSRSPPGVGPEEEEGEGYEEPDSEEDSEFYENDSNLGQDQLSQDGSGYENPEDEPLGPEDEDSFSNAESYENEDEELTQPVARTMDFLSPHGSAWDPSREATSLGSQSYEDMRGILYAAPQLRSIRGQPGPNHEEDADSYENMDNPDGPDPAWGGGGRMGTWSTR

T3: hVISTA-his (human, UniProt Q9H7M9 33-194)
T3 construct: Coated antigen of the specificity ELISA
T3 sequence (looked up): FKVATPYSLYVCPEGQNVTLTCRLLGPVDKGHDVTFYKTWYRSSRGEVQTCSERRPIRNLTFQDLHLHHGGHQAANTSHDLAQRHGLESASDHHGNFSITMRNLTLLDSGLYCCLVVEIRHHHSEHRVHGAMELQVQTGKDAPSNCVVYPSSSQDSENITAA

T4: hLAG3 (human, UniProt P18627 23-450, limits assumed)
T4 construct: Coated antigen of the specificity ELISA
T4 sequence (looked up): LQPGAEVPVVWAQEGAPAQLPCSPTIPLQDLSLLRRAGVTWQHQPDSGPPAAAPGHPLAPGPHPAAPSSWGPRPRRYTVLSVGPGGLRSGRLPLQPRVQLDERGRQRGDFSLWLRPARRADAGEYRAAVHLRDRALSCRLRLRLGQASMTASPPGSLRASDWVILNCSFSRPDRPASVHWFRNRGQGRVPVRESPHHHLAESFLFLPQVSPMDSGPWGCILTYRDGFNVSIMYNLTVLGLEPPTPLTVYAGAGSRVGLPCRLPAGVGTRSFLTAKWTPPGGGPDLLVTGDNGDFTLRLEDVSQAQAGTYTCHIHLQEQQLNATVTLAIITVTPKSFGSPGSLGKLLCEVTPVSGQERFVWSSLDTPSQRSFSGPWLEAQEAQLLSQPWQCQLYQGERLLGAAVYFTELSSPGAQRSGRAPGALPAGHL

T5: CD19 expressed by Nalm6 cells (UniProt P15391 20-556, limits assumed)
T5 construct: whole, on cells; Endogenous CD19 on tumor cell lines; also called Nalm6/GL; CD19 antigen on RAJI-GL and NALM6-GL tumor cells
T5 sequence (looked up): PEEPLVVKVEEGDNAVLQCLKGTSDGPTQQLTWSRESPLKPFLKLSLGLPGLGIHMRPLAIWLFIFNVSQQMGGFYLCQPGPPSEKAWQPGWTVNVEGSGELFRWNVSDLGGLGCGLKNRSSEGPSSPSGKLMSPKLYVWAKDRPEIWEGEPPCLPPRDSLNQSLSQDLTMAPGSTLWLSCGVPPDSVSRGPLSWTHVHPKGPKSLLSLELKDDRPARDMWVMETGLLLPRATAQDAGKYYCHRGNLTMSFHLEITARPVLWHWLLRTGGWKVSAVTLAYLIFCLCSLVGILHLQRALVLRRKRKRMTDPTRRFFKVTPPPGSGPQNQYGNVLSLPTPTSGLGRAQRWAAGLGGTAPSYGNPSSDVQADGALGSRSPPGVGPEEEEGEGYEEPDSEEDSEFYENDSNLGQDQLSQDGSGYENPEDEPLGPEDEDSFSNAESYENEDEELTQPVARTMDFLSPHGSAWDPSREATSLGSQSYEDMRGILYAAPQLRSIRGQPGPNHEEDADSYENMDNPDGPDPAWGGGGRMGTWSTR


Key:
[1] = molecular target: T1, hCD19-his (human CD19 recombinant …); assay: ELISA, coated hCD19-His
Experimental: The antibodies were screened by ELISA according to Example 2. Briefly, […] of hCD19-His (ACRO) were spread and incubated. The purified antibodies were serially diluted to bind the incubated antigen. The binding signal of each antibody could be detected with HRP-labeled goat anti-rat Fc antibody.
Graphpad Prism software was used to calculate the fitting data.

[2] = molecular target: T2, CD19 expressed by Nalm6 cells; assay: flow cytometry
[3] = molecular target: T6, hPD-L1 (human, UniProt Q9NZQ7 19-238, limits assumed); assay: ELISA, coated antigen 0.5 µg/ml
T6 construct: Coated antigen of the specificity ELISA
Experimental: (§1) According to the method described in Example 4, 0.5 μg/ml of hCD19-His, hVISTA-his, hPD-L1, hCD40, h41BB and hLAG3 were spread and incubated respectively, and 2μg/ml of purified antibodies were added to bind the incubated antigen. The binding signal of each antibody could be detected with HRP-labeled goat anti-rat Fc antibody.

[4] = molecular target: T3, hVISTA-his; assay: ELISA, coated antigen 0.5 µg/ml
Experimental: as §1

[5] = molecular target: T4, hLAG3; assay: ELISA, coated antigen 0.5 µg/ml
Experimental: as §1

[6] = molecular target: T7, hCD40 (human, UniProt P25942 21-193); assay: ELISA, coated antigen 0.5 µg/ml
T7 construct: Coated antigen of the specificity ELISA
Experimental: as §1

[7] = molecular target: T8, h41BB (human, UniProt Q07011 24-186); assay: ELISA, coated antigen 0.5 µg/ml
T8 construct: Coated antigen of the specificity ELISA
Experimental: as §1

[8] = molecular target: T5, CD19 expressed by Nalm6 cells; assay: flow cytometry on Nalm6 cells
Experimental: The CD19-expressing tumor cells Nalm6 in logarithmic growth phase were collected and resuspended in PBS at a cell density of 10⁵/well, 100 μl/well. The diluted CD19 antibodies were added into the well and incubated at 4° C. for 1 hour. The cells were washed three times with flow cytometry wash buffer. Anti-rat IgG-Alexa Fluor 647 (Abcam, Cat #ab150163) was added and incubated at 4° C. for 1 hour. The cells were washed three times with flow cytometry wash buffer. The samples were analyzed by flow cytometry. The results are shown in FIG. 3 and Table 4, as follows: […]

[9] = molecular target: T1, hCD19-his (human CD19 recombinant …); assay: ELISA, coated hCD19-His, fully humanized antibody titrated
Experimental: According to the method described in Example 4, 0.5 μg/ml of hCD19-His was spread and incubated. The fully humanized antibodies were serially diluted and added to bind the incubated antigen. The binding signal of each antibody could be detected with HRP-labeled goat […] Fc antibody. The results are shown in FIG. 5 and Table 5, as follows: […]

T7 sequence (P25942 21-193 limits assumed): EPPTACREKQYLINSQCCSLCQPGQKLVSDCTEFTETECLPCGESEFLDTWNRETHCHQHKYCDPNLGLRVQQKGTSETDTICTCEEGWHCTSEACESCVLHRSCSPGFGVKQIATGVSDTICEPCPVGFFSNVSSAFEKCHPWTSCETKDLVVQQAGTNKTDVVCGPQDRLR
T6 sequence (Q9NZQ7 19-238 limits assumed): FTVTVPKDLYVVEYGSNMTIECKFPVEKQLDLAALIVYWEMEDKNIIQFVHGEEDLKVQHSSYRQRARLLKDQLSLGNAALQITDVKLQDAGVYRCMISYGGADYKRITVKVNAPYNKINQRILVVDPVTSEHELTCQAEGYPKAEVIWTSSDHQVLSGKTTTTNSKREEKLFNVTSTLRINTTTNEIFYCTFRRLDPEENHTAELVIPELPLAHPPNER

Binder	EC50 [1] [µg/mL]	EC50 [2] [µg/mL]	binding result [3]	binding result [4]	binding result [5]	binding result [6]	binding result [7]	Maximum mean fluorescence intensity (30 µg/ml) [8]	EC50 [9] [µg/mL]
31A2 (hybridoma antibody) (antibody, V domains shown, hybridoma mAb from H2L2 mouse (human variable, rat constant regions)) VH: QVQLVESGGGVVQPGRSLRLSCAASGFTFSRHGMHWVRQAPGKGLEWVAVIWYDGSNKYYVDSVKGRFTISRDNSKNTLDLQMNSLRAEDTAVYYCARRSITWDGAFDIWGQGTMVTVSS VL: DIQMTQSPSTLSASVGDRVTISCRASQSISSWLAWYQQKPGKAPKLLIYKASSLESGVPSRFSGSGSGTEFTLTISSLQPDDFATYYCQQYNSAYTFGQGTKLEIK	0.0249	22.9	no binding (tested: 2 µg/ml)	no binding (tested: 2 µg/ml)	no binding (tested: 2 µg/ml)	no binding (tested: 2 µg/ml)	no binding (tested: 2 µg/ml)	24700	–
11H8 (hybridoma antibody) (antibody, V domains shown, hybridoma mAb from H2L2 mouse (human variable, rat constant regions)) VH: QVQLVESGGGVVQPGRSLRLSCAASGFTFSRHGMHWVRQAPGKGLEWVAVIWYDGSNQYYVDSVKGRFTISRDNSKNTLDLQMNSLRVEDTAVYYCARRSITWYGGFDIWGQGTMVTVSS VL: DIQMTQSPSTLSASVGDRVTITCRASQSISSWLAWYQQKPGKAPKLLIYKASSLESGVPPRFSGSGSGTEFTLTISSLQPDDFATYYCQQYNSAYTFGQGTKLEIK	0.0301	11.8	no binding (tested: 2 µg/ml)	no binding (tested: 2 µg/ml)	no binding (tested: 2 µg/ml)	no binding (tested: 2 µg/ml)	no binding (tested: 2 µg/ml)	23300	–
15F2 (hybridoma antibody) (antibody, V domains shown, hybridoma mAb from H2L2 mouse (human variable, rat constant regions)) VH: QVQLVESGGGVVQPGRSLRLSCAASGFTFSRHGMHWVRQAPGKGLEWVAVIWYDGSNKYYVDSVKGRFTISRDNSKNTLDLQMNSLRAEDTAVYYCARRSITWDGAFDIWGQGTMVTVSS VL: DIQMTQSPSTLSASVGDRVTVTCRASQSIRSWLAWYQQKPGKAPKLLIYKASSLESGVPSRFSGSGSGTEFTLTISSLQPDDFATYYCQQYNSAYTFGQGTKLEIK	0.0287	24.6	no binding (tested: 2 µg/ml)	no binding (tested: 2 µg/ml)	no binding (tested: 2 µg/ml)	no binding (tested: 2 µg/ml)	no binding (tested: 2 µg/ml)	21700	–
19D6 (antibody, V domains shown, hybridoma mAb from H2L2 mouse (human variable, rat constant regions)) VH: QVQLVESGGGVVQPGRSLRLSCAASGFTFSRHGMHWVRQAPGKGLEWVAVIWYDGSNKYYVDSVKGRFTISRDNSKNTLDLQMNSLRAEDTAVYYCARRSITWDGAFDIWGQGTMVTVSS VL: DIQMTQSPSTLSASVGDRVTVTCRASQSIRSWLAWYQQKPGKAPKLLIYKASSLESGVPSRFSGSGSGTEFTLTISSLQPDDFATYYCQQYNSAYTFGQGTKLEIK	0.0737	–	–	–	–	–	–	10400	–
31A2 fully humanized antibody (recombinant, human IgG1 / kappa) (antibody, V domains shown) VH: QVQLVESGGGVVQPGRSLRLSCAASGFTFSRHGMHWVRQAPGKGLEWVAVIWYDGSNKYYVDSVKGRFTISRDNSKNTLDLQMNSLRAEDTAVYYCARRSITWDGAFDIWGQGTMVTVSS VL: DIQMTQSPSTLSASVGDRVTISCRASQSISSWLAWYQQKPGKAPKLLIYKASSLESGVPSRFSGSGSGTEFTLTISSLQPDDFATYYCQQYNSAYTFGQGTKLEIK	–	–	–	–	–	–	–	–	0.00446
11H8 fully humanized antibody (recombinant, human IgG1 / kappa) (antibody, V domains shown) VH: QVQLVESGGGVVQPGRSLRLSCAASGFTFSRHGMHWVRQAPGKGLEWVAVIWYDGSNQYYVDSVKGRFTISRDNSKNTLDLQMNSLRVEDTAVYYCARRSITWYGGFDIWGQGTMVTVSS VL: DIQMTQSPSTLSASVGDRVTITCRASQSISSWLAWYQQKPGKAPKLLIYKASSLESGVPPRFSGSGSGTEFTLTISSLQPDDFATYYCQQYNSAYTFGQGTKLEIK	–	–	–	–	–	–	–	–	0.00263
15F2 fully humanized antibody (recombinant, human IgG1 / kappa) (antibody, V domains shown) VH: QVQLVESGGGVVQPGRSLRLSCAASGFTFSRHGMHWVRQAPGKGLEWVAVIWYDGSNKYYVDSVKGRFTISRDNSKNTLDLQMNSLRAEDTAVYYCARRSITWDGAFDIWGQGTMVTVSS VL: DIQMTQSPSTLSASVGDRVTVTCRASQSIRSWLAWYQQKPGKAPKLLIYKASSLESGVPSRFSGSGSGTEFTLTISSLQPDDFATYYCQQYNSAYTFGQGTKLEIK	–	–	–	–	–	–	–	–	0.00378
27F11 fully humanized antibody (recombinant, human IgG1 / kappa) (antibody, V domains shown) VH: QVQLVESGGGVVQPGRSLRLSCAASGFTFSRHGMHWVRQAPGKGLEWVAVIYYDGSNKYYVDSVKGRFTISRDNSKNTLDLQMNSLRAEDTAVYYCARRSITWNGAFDIWGQGTMVTVSS VL: DIQMTQSPSTLSASVGDRVTISCRASQSISSWLAWYQQKPGKAPKLLIYKASSLESGVPSRFSGSGSGTEFTLTISSLQPDDFATYYCQQYNSAYTFGQGTKLEIK	–	–	–	–	–	–	–	–	0.004
17B6 fully humanized antibody (recombinant, human IgG1 / kappa) (antibody, V domains shown) VH: QVQLVESGGGVVQPGRSLRLSCEASGFTFSRHGMHWVRQAPGKGLEWVAVIFYDGSQNYYADSVRGRFTISRDNSKNTLSLQMDSLRAEDTAVYYCARRSITWNGGFDIWGQGTMVTVSP VL: DIQMTQSPSTLSASVGDRVTITCRASQSISSWLAWYQQKPGKAPKLLIYKASSLESGVPSRFSGSGSGTEFTLAISSLQPDDFATYYCQQYNRFYTFGQGTKLEIK	–	–	–	–	–	–	–	–	0.00452
52F9 fully humanized antibody (recombinant, human IgG1 / kappa) (antibody, V domains shown) VH: QVQLVESGGGVVQAGRSLRLSCAASGFTFSNYGIHWVRQAPGKGLEWVGVIWHDGSIKNYADFVKGRFTISRDNSEDTLYLQMNSLRAEDTAVYYCAREQGNYYGWGSYKAFDIWGQGTMVTVSS VL: DIQLTQSPSFLSVFVGDRVTITCRASQGISNYLAWYQQKPGKAPELLLYATSTLQSGVPSRLSGSGSGTEFTLTLSSLQPEDFATYYCQQVYSFPYTFGQGTKLEIK	–	–	–	–	–	–	–	–	0.00792
